The record followed here is the supplement of paper PMC5998384.

In data set [1] the test system is HeLa Kyoto. The data set can be described thus: solubility in G1/S (NP-40 vs SDS abundance) (log2 ratio); higher = more soluble. The conditions noted are these: cell cycle stage: G1/S.
Data set [2] deals with HeLa Kyoto. The data set can be described thus: melting temperature (median over replicates), in situ; higher = more thermally stable.
Data set [3] deals with HeLa Kyoto. The data set can be described thus: solubility change mitosis vs G1/S (difference of NP-40 vs SDS log2 ratios) (log2 ratio difference); higher = more soluble in mitosis.
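Wherever melting temperature (median over replicates), in situ is given: HeLa Kyoto cells synchronized by double thymidine or nocodazole block, proteins quantified by TMT10plex mass spectrometry, three independent biological replicates.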
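Wherever solubility change mitosis vs G1/S (difference of NP-40 vs SDS log2 ratios) is given: synchronized HeLa Kyoto cells (double thymidine block for G1/S, nocodazole release for mitosis), protein amounts in NP-40 versus SDS lysates quantified by mass spectrometry, three biological replicates.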
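Wherever solubility in G1/S (NP-40 vs SDS abundance) is given: HeLa Kyoto cells arrested at G1/S by double thymidine block, proteins quantified by TMT10plex mass spectrometry in mild NP-40 versus SDS extracts, three biological replicates.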

GNG12, sequence (chain, as listed by the source): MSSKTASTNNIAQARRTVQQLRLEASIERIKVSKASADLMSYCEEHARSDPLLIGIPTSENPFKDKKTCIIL

For the substance “MAAQGAAAAVAAGTSGVAGEGEPGPGENAAAEGTAPSPGRVSPPTPARGEPEVTVEIGETYLCRRPDSTWHSAEVIQSRVNDQEGREEFYVHYVGFNRRLDEWVDKNRLALTKTVKDAVQKNSEKYLSELAEQPERKITRNQKRKHDEINHVQKTYAEMDPTTAALEKEHEAITKVKYVDKIHIGNYEIDAWYFSPFPEDYGKQPKLWLCEYCLKYMKYEKSYRFHLGQCQWRQPPGKEIYRKSNISVYEVDGKDHKIYCQNLCLLAKLFLDHKTLYFDVEPFVFYILTEVDRQGAHIVGYFSKEKESPDGNNVACILTLPPYQRRGYGKFLIAFSYELSKLESTVGSPEKPLSDLGKLSYRSYWSWVLLEILRDFRGTLSIKDLSQMTSITQNDIISTLQSLNMVKYWKGQHVICVTPKLVEEHLKSAQYKKPPITVDSVCLKWAPPKHKQVKLSKK [KAT8]”, the “solubility in G1/S (log2)” value in data set [1] is -0.134. In data set [2] (cell cycle stage: mitosis), this substance registered a melting temperature of 49.9 °C. In addition, in data set [3], the “solubility change mitosis (log2)” value is -0.249.
Turning to “MGSTVPRSASVLLLLLLLRRAEQPCGAELTFELPDNAKQCFHEEVEQGVKFSLDYQVITGGHYDVDCYVEDPQGNTIYRETKKQYDSFTYRAEVKGVYQFCFSNEFSTFSHKTVYFDFQVGDEPPILPDMGNRVTALTQMESACVTIHEALKTVIDSQTHYRLREAQDRARAEDLNSRVSYWSVGETIALFVVSFSQVLLLKSFFTEKRPISRAVHS [TMED3]”, in data set [1], the “solubility in G1/S (log2)” value is -0.0742. Besides, the melting temperature in data set [2] (cell cycle stage: G1/S) and in data set [2] (cell cycle stage: mitosis) was 53.4 °C throughout. Besides, in data set [3], the “solubility change mitosis (log2)” value was -0.000936.
With CHD8, the “solubility in G1/S (log2)” value in data set [1] was -0.156. Besides, the melting temperature in data set [2] (cell cycle stage: G1/S) turned out to be 46.5 °C; in data set [2] (cell cycle stage: mitosis), 50.1 °C. Also, the “solubility change mitosis (log2)” value in data set [3] is -0.0952.
For the substance GNG12, in data set [1], the “solubility in G1/S (log2)” value was -1.84. The figures for the melting temperature in data set [2] (cell cycle stage: G1/S) and in data set [2] (cell cycle stage: mitosis) were 52.4 °C and 54 °C, respectively. The “solubility change mitosis (log2)” value in data set [3] turned out to be 0.506.
In the same order, the values of “MEQAPNMAEPRGPVDHGVQIRFITEPVSGAEMGTLRRGGRRPAKDARASTYGVAVRVQGIAGQPFVVLNSGEKGGDSFGVQIKGANDQGASGALSSDLELPENPYSQVKGFPAPSQSSTSDEEPGAYWNGKLLRSHSQASLAGPGPVDPSNRSNSMLELAPKVASPGSTIDTAPLSSVDSLINKFDSQLGGQARGRTGRRTRMLPPEQRKRSKSLDSRLPRDTFEERERQSTNHWTSSTKYDNHVGTSKQPAQSQNLSPLSGFSRSRQTQDWVLQSFEEPRRSAQDPTMLQFKSTPDLLRDQQEAAPPGSVDHMKATIYGILREGSSESETSVRRKVSLVLEKMQPLVMVSSGSTKAVAGQGELTRKVEELQRKLDEEVKKRQKLEPSQVGLERQLEEKTEECSRLQELLERRKGEAQQSNKELQNMKRLLDQGEDLRHGLETQVMELQNKLKHVQGPEPAKEVLLKDLLETRELLEEVLEGKQRVEEQLRLRERELTALKGALKEEVASRDQEVEHVRQQYQRDTEQLRRSMQDATQDHAVLEAERQKMSALVRGLQRELEETSEETGHWQSMFQKNKEDLRATKQELLQLRMEKEEMEEELGEKIEVLQRELEQARASAGDTRQVEVLKKELLRTQEELKELQAERQSQEVAGRHRDRELEKQLAVLRVEADRGRELEEQNLQLQKTLQQLRQDCEEASKAKMVAEAEATVLGQRRAAVETTLRETQEENDEFRRRILGLEQQLKETRGLVDGGEAVEARLRDKLQRLEAEKQQLEEALNASQEEEGSLAAAKRALEARLEEAQRGLARLGQEQQTLNRALEEEGKQREVLRRGKAELEEQKRLLDRTVDRLNKELEKIGEDSKQALQQLQAQLEDYKEKARREVADAQRQAKDWASEAEKTSGGLSRLQDEIQRLRQALQASQAERDTARLDKELLAQRLQGLEQEAENKKRSQDDRARQLKGLEEKVSRLETELDEEKNTVELLTDRVNRGRDQVDQLRTELMQERSARQDLECDKISLERQNKDLKTRLASSEGFQKPSASLSQLESQNQLLQERLQAEEREKTVLQSTNRKLERKVKELSIQIEDERQHVNDQKDQLSLRVKALKRQVDEAEEEIERLDGLRKKAQREVEEQHEVNEQLQARIKSLEKDSWRKASRSAAESALKNEGLSSDEEFDSVYDPSSIASLLTESNLQTSSC [CGN]” are -0.601, 53.6 °C, 53.6 °C and 0.648.
With “MITKTHKVDLGLPEKKKKKKVVKEPETRYSVLNNDDYFADVSPLRATSPSKSVAHGQAPEMPLVKKKKKKKKGVSTLCEEHVEPETTLPARRTEKSPSLRKQVFGHLEFLSGEKKNKKSPLAMSHASGVKTSPDPRQGEEETRVGKKLKKHKKEKKGAQDPTAFSVQDPWFCEAREARDVGDTCSVGKKDEEQAALGQKRKRKSPREHNGKVKKKKKIHQEGDALPGHSKPSRSMESSPRKGSKKKPVKVEAPEYIPISDDPKASAKKKMKSKKKVEQPVIEEPALKRKKKKKRKESGVAGDPWKEETDTDLEVVLEKKGNMDEAHIDQVRRKALQEEIDRESGKTEASETRKWTGTQFGQWDTAGFENEDQKLKFLRLMGGFKNLSPSFSRPASTIARPNMALGKKAADSLQQNLQRDYDRAMSWKYSRGAGLGFSTAPNKIFYIDRNASKSVKLED [KNOP1]”, in data set [1], the “solubility in G1/S (log2)” value was -1.76. In addition, the results for the melting temperature in data set [2] (cell cycle stage: G1/S) and in data set [2] (cell cycle stage: mitosis) were 54.2 °C and 52.1 °C, respectively. Moreover, the “solubility change mitosis (log2)” value in data set [3] was found to be 1.57.
